Results as given in patent publication US20050036947A1, “Target-specific activatable polymeric imaging agents” (General Electric Company, priority 2003, published 2005).
Where no end group is shown, it is not given here. [ ]: non-standard residue; d: D form. Hyp = O=C(O)[C@@H]1C[C@@H](O)CN1

Columns and labels:
[1] = test system: α-fetoprotein (“AFP”) receptor; conditions: MCF-7 human breast cancer cells; cited from earlier work
[2] = Cross-sectional diameter of the conjugated polymer; format: physicochemical; conditions: highly conjugated
[3] = Relaxivity of the contrast agent (effect on T1 relaxation of water protons); format: physicochemical; conditions: for relaxivity: globular vs elongated conformation
From the text: When the carrier molecule is in an elongated conformation, the chelator entity, which provides the MR activity, is free to rotate about its attachment point to the main chain, allowing a […] T1 relaxation time of the surrounding water protons, which are the source of the MR signal. When the carrier molecule is in a globular or highly folded conformation, the paramagnetic ions on the chelator entities tumble at a slower rate (along with the entire molecule). […] A low relaxivity or long relaxation time is associated with an elongated molecule such as a highly substituted Gd-DTPA-PLL, in which the Gd can rotate rapidly, having a relaxivity of about 8 sec^−1 mM^−1. When the relaxivity of a peptide contrast agent was high, the uptake coefficient of such an agent was invariably low, evidently due to the absence of a reptation movement of the contrast agent molecule, resulting in the exclusion of the contrast agent from narrow passages. Thus, it is important to establish that the peptides being compared for optimum length are all of the same conformation.

| Substance | bind to α-fetoprotein (“AFP”) receptor [1] | cross-sectional diameter [2] | relaxivity [3] | relaxivity in bulk water ([3]; highly conjugated (degree of conjugation about 90 percent or higher)) [mM⁻¹ s⁻¹] |
| --- | --- | --- | --- | --- |
| EMTOVNOG (EMT[Hyp]VN[Hyp]G) [linear octapeptide; O represents 4-hydroxyproline] | bind |  |  |  |
| EMTOVNOGQ (EMT[Hyp]VN[Hyp]GQ; also: cyclic, mode not given here) [cyclic peptide; O represents 4-hydroxyproline] | bind |  |  |  |
| Gd-DTPA-PLL |  | about 25 angstroms | about 8 sec^−1 mM^−1 | 6.8 to 7.8 |
| albumin |  |  | about 15 sec^−1 mM^−1 |  |
